Measured values reported in patent US20220227830A1, “QD DOSING OF GIP RECEPTOR AGONIST PEPTIDE COMPOUNDS AND USES THEREOF” (Takeda Pharmaceutical Company Limited, priority 2020, published 2022).
Starred links: 1 amine or outer side, 2 acyl side, 3 side chain; linkers in the order of their positions; H or OH if unused. Non-standard residues stand in square brackets, D forms with d. Groups on a side chain read outwards from the residue. No end group written: not given here. *: point of attachment. G2E3 = linker of 2 Gly and 3 Glu (read GGEEE); C15 diacid = O=C(O)CCCCCCCCCCCCCC(=O)*; γGlu = O=C(O)[C@H](CCC(=O)[*:2])N[*:1]; NMeY = CN[C@@H](Cc1ccc(O)cc1)C(=O)O; AEEA = NCCOCCOCC(=O)O; Aib = CC(C)(N)C(=O)O

T1: full-length human GIPR with an N-terminal FLAG tag (human, UniProt P48546 22-466)
T1 sequence (looked up): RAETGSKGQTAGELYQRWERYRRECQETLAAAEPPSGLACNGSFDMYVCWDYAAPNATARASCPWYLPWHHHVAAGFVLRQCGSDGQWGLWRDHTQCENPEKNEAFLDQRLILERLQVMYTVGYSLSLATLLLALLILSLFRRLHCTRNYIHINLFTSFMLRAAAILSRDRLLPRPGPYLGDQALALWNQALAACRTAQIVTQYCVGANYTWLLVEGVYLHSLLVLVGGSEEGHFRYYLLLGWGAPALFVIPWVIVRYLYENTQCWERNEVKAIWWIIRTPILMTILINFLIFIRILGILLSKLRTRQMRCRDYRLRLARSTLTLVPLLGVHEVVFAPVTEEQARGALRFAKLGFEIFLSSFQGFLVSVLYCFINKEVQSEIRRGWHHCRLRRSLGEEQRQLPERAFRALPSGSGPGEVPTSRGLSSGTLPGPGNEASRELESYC

B1: Compound 27 (peptide)
peptide: [NMeY][Aib]EGTFISDYSIALDR[Aib]AQ[Aib]K([AEEA-AEEA-γGlu-γGlu-C15 diacid])FVNWLLAQK-OH
modifications: N-terminus assumed
SMILES: CC[C@H](C)[C@H](NC(=O)[C@H](CO)NC(=O)[C@H](Cc1ccc(O)cc1)NC(=O)[C@H](CC(=O)O)NC(=O)[C@H](CO)NC(=O)[C@@H](NC(=O)[C@H](Cc1ccccc1)NC(=O)[C@@H](NC(=O)CNC(=O)[C@H](CCC(=O)O)NC(=O)C(C)(C)NC(=O)[C@H](Cc1ccc(O)cc1)NC)[C@@H](C)O)[C@@H](C)CC)C(=O)N[C@@H](C)C(=O)N[C@@H](CC(C)C)C(=O)N[C@@H](CC(=O)O)C(=O)N[C@@H](CCCNC(=N)N)C(=O)NC(C)(C)C(=O)N[C@@H](C)C(=O)N[C@@H](CCC(N)=O)C(=O)NC(C)(C)C(=O)N[C@@H](CCCCNC(=O)COCCOCCNC(=O)COCCOCCNC(=O)CC[C@H](NC(=O)CC[C@H](NC(=O)CCCCCCCCCCCCCC(=O)O)C(=O)O)C(=O)O)C(=O)N[C@@H](Cc1ccccc1)C(=O)N[C@H](C(=O)N[C@@H](CC(N)=O)C(=O)N[C@@H](Cc1c[nH]c2ccccc12)C(=O)N[C@@H](CC(C)C)C(=O)N[C@@H](CC(C)C)C(=O)N[C@@H](C)C(=O)N[C@@H](CCC(N)=O)C(=O)N[C@@H](CCCCN)C(=O)O)C(C)C
B2: Compound 26 (peptide)
peptide: [NMeY][Aib]EGTFISDYSIAK([AEEA-AEEA-γGlu-γGlu-C15 diacid])DR[Aib]AQ[Aib]NFVNWLLAQK-OH
modifications: N-terminus assumed
SMILES: CC[C@H](C)[C@H](NC(=O)[C@H](CO)NC(=O)[C@H](Cc1ccc(O)cc1)NC(=O)[C@H](CC(=O)O)NC(=O)[C@H](CO)NC(=O)[C@@H](NC(=O)[C@H](Cc1ccccc1)NC(=O)[C@@H](NC(=O)CNC(=O)[C@H](CCC(=O)O)NC(=O)C(C)(C)NC(=O)[C@H](Cc1ccc(O)cc1)NC)[C@@H](C)O)[C@@H](C)CC)C(=O)N[C@@H](C)C(=O)N[C@@H](CCCCNC(=O)COCCOCCNC(=O)COCCOCCNC(=O)CC[C@H](NC(=O)CC[C@H](NC(=O)CCCCCCCCCCCCCC(=O)O)C(=O)O)C(=O)O)C(=O)N[C@@H](CC(=O)O)C(=O)N[C@@H](CCCNC(=N)N)C(=O)NC(C)(C)C(=O)N[C@@H](C)C(=O)N[C@@H](CCC(N)=O)C(=O)NC(C)(C)C(=O)N[C@@H](CC(N)=O)C(=O)N[C@@H](Cc1ccccc1)C(=O)N[C@H](C(=O)N[C@@H](CC(N)=O)C(=O)N[C@@H](Cc1c[nH]c2ccccc12)C(=O)N[C@@H](CC(C)C)C(=O)N[C@@H](CC(C)C)C(=O)N[C@@H](C)C(=O)N[C@@H](CCC(N)=O)C(=O)N[C@@H](CCCCN)C(=O)O)C(C)C
B3: Compound 28 (peptide)
peptide: [NMeY][Aib]EGTFISDYSIAK([AEEA-γGlu-γGlu-γGlu-C15 diacid])DR[Aib]AQ[Aib]NFVNWLL[Aib]QK-NH2
modifications: N-terminus assumed
SMILES: CC[C@H](C)[C@H](NC(=O)[C@H](CO)NC(=O)[C@H](Cc1ccc(O)cc1)NC(=O)[C@H](CC(=O)O)NC(=O)[C@H](CO)NC(=O)[C@@H](NC(=O)[C@H](Cc1ccccc1)NC(=O)[C@@H](NC(=O)CNC(=O)[C@H](CCC(=O)O)NC(=O)C(C)(C)NC(=O)[C@H](Cc1ccc(O)cc1)NC)[C@@H](C)O)[C@@H](C)CC)C(=O)N[C@@H](C)C(=O)N[C@@H](CCCCNC(=O)COCCOCCNC(=O)CC[C@H](NC(=O)CC[C@H](NC(=O)CC[C@H](NC(=O)CCCCCCCCCCCCCC(=O)O)C(=O)O)C(=O)O)C(=O)O)C(=O)N[C@@H](CC(=O)O)C(=O)N[C@@H](CCCNC(=N)N)C(=O)NC(C)(C)C(=O)N[C@@H](C)C(=O)N[C@@H](CCC(N)=O)C(=O)NC(C)(C)C(=O)N[C@@H](CC(N)=O)C(=O)N[C@@H](Cc1ccccc1)C(=O)N[C@H](C(=O)N[C@@H](CC(N)=O)C(=O)N[C@@H](Cc1c[nH]c2ccccc12)C(=O)N[C@@H](CC(C)C)C(=O)N[C@@H](CC(C)C)C(=O)NC(C)(C)C(=O)N[C@@H](CCC(N)=O)C(=O)N[C@@H](CCCCN)C(N)=O)C(C)C
B4: Compound 36 (peptide)
peptide: YXEGTFISDYSIALDKXHQXDFVNWLLAXK
modifications: not fully specified; Me-Tyr1; Aib 2,17,20; Km29 = Lys(2OEGgE-C15DA); position 21 printed 'O' in Table 3; C-term OH

Columns and labels:
[1] = target: T1, full-length human GIPR with an …; test: cell-based or functional assay
[2] = target: full-length human GLP-1R with an N-terminal FLAG tag (human, UniProt P43220 24-463); test: cell-based or functional assay

Binder | Human GIPR cAMP, HEK293T EC50 [1] | Human GLP1R cAMP HEK293T EC50 [2]
Me-Y[Aib]EGTFISDYSIAKDR[Aib]AQ[Aib]DFVNWLLAQSPSSGAPPPG-OH (not fully specified (residues 1, 14)) [Compound 152] | 0.0003 nM | 302 nM
Me-Y[Aib]EGTFISDYSIAK([AEEA-AEEA-γGlu-γGlu-C15 diacid])DR[Aib]AQ[Aib]NFVNWLLAQS (not fully specified (residue 1)) [Compound 16] | 0.0003 nM | 263 nM
[NMeY][Aib]EGTFISDYSIALDR[Aib]AQ[Aib]NFVNWLLAQK([G2E3-C15 diacid])PSSGAPPPS-OH [Compound 32] | 0.0002 nM | 4.73 nM
[NMeY][Aib]EGTFISDYSIALDR[Aib]AQ[Aib]NFVNWLLAK([AEEA-AEEA-γGlu-C15 diacid])K-OH (not fully specified) [Compound 34] | 0.0003 nM | 117 nM
Me-Y[Aib]EGTFISDYSIAK([γGlu-γGlu-γGlu-C15 diacid])DR[Aib]AQ[Aib]NFVNWLLAQSPSSGAPPPS-NH2 [Compound 18] | 0.0002 nM | 1000 nM
Me-Y[Aib]EGTFISDYSIAK([2OEG-γGlu-γGlu-C15 diacid])DR[Aib]AQ[Aib]NFVNWLLAQK-NH2 [Compound 22] | 0.0003 nM | 631 nM
B1 | 0.0006 nM | 145 nM
Me-Y[Aib]EGTFISDYSIALDR[Aib]AQ[Aib]K([AEEA-γGlu-γGlu-γGlu-C15 diacid])FVNWLLAQK-NH2 [Compound 24] | 0.0004 nM | 16.9 nM
B2 | 0.0003 nM | 1000 nM
[NMeY][Aib]EGTFISDYSIAK([AEEA-γGlu-γGlu-γGlu-C15 diacid])DR[Aib]AQ[Aib]NFVNWLL[Aib]QK-OH (not fully specified) [Compound 38] | 0.0002 nM | 525 nM
[NMeY][Aib]EGTFISDYSIALDRK([AEEA-AEEA-γGlu-C15 diacid])HQ[Aib]NFVNWLLAQS-OH (also: Me-Tyr methyl position not given here) [Compound 37] | 0.0002 nM | 43.7 nM
B3 | 0.0001 nM | 60.3 nM
Me-Y[Aib]EGTFISDYSIAKDS[Aib]AQ[Aib]NFVNWLLAQSPSSGAPPPS-NH2 (not fully specified (residues 1, 14)) [Compound 154] | 0.0003 nM | 288 nM
Me-Y[Aib]EGTFISDYSIAKDS[Aib]AQ[Aib]DFVNWLLAQRPSSGAPPPS-NH2 (not fully specified (residues 1, 14)) [Compound 153] | 0.0002 nM | 389 nM
B4 | 0.001 nM | 25.1 nM
[NMeY][Aib]EGTFISDYSIALDR[Aib]AQ[Aib]K([G2E3-C15 diacid])FVNWLLAQK-NH2 [Compound 31] | 0.0002 nM | 0.776 nM
Me-Y[Aib]EGTFISDYSI[Aib]KDR[Aib]AQ[Aib]DFVNWLLAQSPSSGAPPPS-OH (not fully specified (residues 1, 14)) [Compound 156] | 0.0002 nM | 89.1 nM
[NMeY][Aib]EGTFISDYSIALDR[Aib]AQ[Aib]K([AEEA-AEEA-γGlu-γGlu-C15 diacid])FVNWLLAQR (not fully specified (N-terminus, C-terminus)) [Compound 15] | 0.0003 nM | 155 nM
Me-Y[Aib]EGTFISDYSIAKDR[Aib]AQ[Aib]DFVNWLLAQSPSSGAPPPS-OH (not fully specified (residues 1, 14)) [Compound 155] | 0.0003 nM | 295 nM
[NMeY][Aib]EGTFISDYSIAK([G2E3-C15 diacid])DR[Aib]AQ[Aib]NFVNWLLAQK-NH2 [Compound 30] | 0.0001 nM | 442 nM
Me-Y[Aib]EGTFISDYSIAK([AEEA-γGlu-γGlu-γGlu-C15 diacid])DR[Aib]AQ[Aib]NFVNWLLAQK-NH2 [Compound 23] | 0.0004 nM | 363 nM
